In doi:10.1101/2024.04.22.590578 one finds stoichiometry N data, which are given here for 1 substance.

In the experiment the target is SARS-CoV-2 main protease (M^pro), wild type (SARS-CoV-2). Description: crystal structure.

For “SARS-CoV-2 main protease (M^pro), wild type (enzyme)”, the stoichiometry N came out at 2.
